Patent US7531345B2, “Mutations for enhanced tyrosine production” (Massachusetts Institute of Technology, priority 2005, dated 2009)
“And” between values parts separate entries of the source, which are not always exact repeats. Equal entries are not always repeated.

What was measured:
[1] = target: prephenate dehydrogenase (PDH) activity of TyrA (CM/PDH) protein (Escherichia coli, UniProt P07023); assay: PDH activity measurement with purified TyrA proteins (NADH formation, 340 nm); format: biochemical, Escherichia coli K12; settings: 20 μM tyrosine, purified protein (FIG. 2)
prephenate dehydrogenase (PDH) activity of TyrA (CM/PDH) protein (Escherichia coli, UniProt P07023), sequence (P07023 whole entry): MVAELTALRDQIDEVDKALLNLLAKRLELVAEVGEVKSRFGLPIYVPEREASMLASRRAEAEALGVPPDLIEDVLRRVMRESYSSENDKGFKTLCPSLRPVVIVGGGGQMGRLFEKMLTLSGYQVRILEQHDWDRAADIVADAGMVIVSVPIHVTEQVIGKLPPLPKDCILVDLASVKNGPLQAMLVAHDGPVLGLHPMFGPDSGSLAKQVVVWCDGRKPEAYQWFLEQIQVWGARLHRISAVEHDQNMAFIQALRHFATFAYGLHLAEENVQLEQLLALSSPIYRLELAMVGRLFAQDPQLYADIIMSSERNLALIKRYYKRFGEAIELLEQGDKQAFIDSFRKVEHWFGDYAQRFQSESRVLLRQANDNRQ
Description: (§1) For high expression levels of the tyrA^fbr genes, the respective pET30::tyrA^fbr plasmids were transformed to E. coli BL21 (DE3) competent cells (Novagen). The cells were cultivated in LB medium plus 20 μg/ml kanamycin and 1 mM isopropyl-β-D-thiogalactoside (IPTG). After reaching an OD600 of ˜1, the cells were collected by centrifugation, resuspended in binding buffer (20 mM Tris/HCl, 0.5 M NaCl, 5 mM imidazole, pH 7.9), and disrupted by sonication with a Branson Sonifier 450. The cell extract was centrifugated at 10,000×g for 15 min, and the supernatant was filtered through a 0.45 μm syringe filter (PALL Gelman Laboratory). The native His6-tagged TyrA protein was purified by pre-charged His-Bind column chromatography according to the manufacturer's protocol (Novagen). The eluated protein solution was desalted by Econo-Paco®10DG columns (Biorad) and concentrated by Centriprep®YM10 centrifugal ultrafiltration devices (Millipore). Expression and purification steps were controlled by SDS-PAGE (Laemmli, U. K. 1970. Nature 227: 680-685). […]
(§2) PDH activities of purified TyrA proteins were determined spectrophotometrically according to NADH formation (Davidson, B. E., and G. S. Hudson. 1987. Methods Enzymol. 142: 440-450). […] The reaction was started by addition of approximately 0.1 μg of enzyme which corresponded to 5-20 μl of enzyme solution, and the absorbance at 340 nm was followed for 2 min. […]

[2] = tested on: prephenate dehydrogenase (PDH) activity of TyrA (CM/PDH) protein; assay: as above; format: biochemical, Escherichia coli K12; settings: purified His6-tagged TyrA protein, absence of tyrosine
Description: as §1, §2

[3] = tested on: chorismate mutase (CM) activity of TyrA (CM/PDH) protein; assay: Chorismate mutase (CM) activity with purified TyrA proteins; format: biochemical, Escherichia coli K12
Description: as §1
CM activities were determined spectrophotometrically based on the formation of phenylpyruvate by treatment with HCl (Davidson, B. E., and G. S. Hudson. 1987. Methods Enzymol. 142: 440-450). […] The samples were alkalized with 1 ml of 2.5 M NaOH, and the absorbance was measured at 320 nm according to a blank sample without enzyme. […]

E. coli DH5α = assay: Growth of E. coli DH5α strains in the presence of m-fluoro-D,L-tyrosine (OD600); format: cell-based, Escherichia coli
Description: The growth in E. coli DH5α strains harboring eight different plasmids are presented: −, pZE21::tyr^WT; +, pZE21::tyrA^fbr-5; ▪, pZE21::tyrA^fbr-7; ▴, pZE21::tyrA^fbr-10; ♦, pZE21::tyrA^fbr-13; ▾, pZE21::tyrA^fbr-15; ? , pZE21::tyrA^fbr-18; ●, pZE21::tyrA^fbr-20. […] E. coli cells were cultivated in MOPS-buffered minimal medium containing m-fluoro-D,L-tyrosine. After incubation at 37° C. at 225 rpm on a rotary shaker for 20 h, the optical density at 600 nm (OD600) was measured.
Nucleotide analogue mutagenesis was carried out in the presence of 2 and 20 μM […] (8-oxo-dGTP) and 6-(2-deoxy-β-D-ribofuranosyl)-3,4-dihydro-8H-pyrimido-[4,5-c][1,2]oxazin-7-one (dPTP) (Zaccolo, M., D. et al. 1996, J. Mol. Biol. 255: 589-603). Using the plasmid pZE21::tyrA^WT as template, 10, 20 and 30 amplification cycles with the primers mentioned above were performed. The 1.1 kbp PCR products were gel-purified, and the mutated tyrA genes were amplified in a second PCR reaction under regular conditions. Subsequently, the gel-purified DNA fragments were pooled, digested with KpnI and MluI, ligated into pZE21-MCS1, and transformed to highly competent E. coli DH5α cells (Invitrogen). Putative tyrA^fbr mutants were selected on minimal medium agar plates with 20 μg/ml kanamycin and 2 mM m-flouro-D,L-tyrosine.
Mutants of the tyrA gene from E. coli K12 were generated by error-prone PCR and cloned into pZE21-MCS1. […] From 621 obtained tyrA^fbr mutants, seven mutants were chosen for detailed analyses.

TyrA^WT: wild-type chorismate mutase/prephenate dehydrogenase (T-protein) of E. coli K12, His6-tagged, purified
specific PDH activity in the presence of tyrosine, relative to activity in the absence of tyrosine [1]: less than 10% | PDH activity, 0 μM Tyrosine [2]: 29.8 U/mg and 29.80 U/mg | CM activity, 100 μM Tyrosine ([3]; 100 μM tyrosine in the presence of 100 μM NAD+): 1.23 U/mg | CM activity, 0 μM Tyrosine ([3]; absence of tyrosine): 1.32 U/mg

NC(Cc1ccc(O)c(F)c1)C(=O)O (racemic) [m-fluoro-D,L-tyrosine]
concentration of m-fluoro-D,L-tyrosine inhibiting growth (E. coli DH5α; E. coli DH5α without plasmid): ≥ 0.1 mM | effect on growth of E. coli DH5α harboring plasmid pZE21::tyrA^WT (E. coli DH5α; selection at ≧2 mM m-fluoro-D,L-tyrosine): inhibits growth

N[C@@H](Cc1ccc(O)cc1)C(=O)O [L-tyrosine]
effect of L-tyrosine on growth inhibited by m-fluoro-D,L-tyrosine (E. coli DH5α; E. coli DH5α without plasmid, equimolar amounts of L-tyrosine): restored growth
